Results reported in patent publication CN102127167A.
pKd: −log10 of the molar value. “And” between values parts separate entries of the source, which are not always exact repeats. Equal entries are not always repeated.

Columns and labels:
人TNFα (human) [1] = target: 人TNFα (human) (UniProt P01375); assay: SPR (Biacore), TNFa coupled to the chip, antibody as analyte
人TNFα (human) [2] = target: 人TNFα (human) (UniProt P01375); assay: cell-based or functional assay

Sequence of UniProt P01375 (P01375 77-233 limits assumed): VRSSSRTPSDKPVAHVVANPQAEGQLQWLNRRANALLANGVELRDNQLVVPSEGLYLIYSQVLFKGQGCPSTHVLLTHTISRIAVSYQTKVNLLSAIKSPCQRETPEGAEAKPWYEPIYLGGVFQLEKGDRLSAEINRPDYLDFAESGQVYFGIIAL

**Q.** What does the source list for humira (antibody)?
**A.** pKd (人TNFα (human) [1]): 8.70; IC50(pM), L929细胞保护试验 (人TNFα (human) [2]): 1.37 pM and 2.52 pM and 2.32 pM; IC50(pM), L929细胞保护试验, 平均值 (人TNFα (human) [2]): 2.42 pM
